Measured values as given in the supplement of paper PMC9233669.
Fewer inactive variants are shown than the library holds.

Experiments:
[1] = tested on: biotinyl-Trp-oxazolone; assay: self-aminoacylation, catalytic enhancement (BWO) (fold over background); higher = more active; k-Seq, kA / k0A0; sequences stand for … in GGGAAUGGAUCCACAUCUACGAAUUC…UUCACUGCAGACUUGACGAAGCUG
Procedure, shortened: (§1)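 The uncatalyzed rate is the low-activity peak of a bimodal Gaussian fit, and catalytic enhancement is median kA divided by it. The kA values came from pseudo-first-order fits, with 1000 bootstraps, of per-sequence fraction reacted measured by streptavidin capture, triplicate qPCR and Illumina sequencing. Mutagenized RNA pools with a 21-nt variable region (0.43 μM) were reacted with each biotinyl-aminoacyl-oxazolone at 2–1250 μM in 50 μL HEPES/NaCl/KCl/MgCl2/CaCl2 buffer with 5% acetonitrile, pH 6.9–7.0, for 90 minutes at room temperature.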

[2] = tested on: biotinyl-Leu-oxazolone; assay: self-aminoacylation, catalytic enhancement (BLO) (fold over background); higher = more active; k-Seq, kA / k0A0; sequences stand for … in GGGAAUGGAUCCACAUCUACGAAUUC…UUCACUGCAGACUUGACGAAGCUG
Procedure, shortened: as §1

[3] = tested on: biotinyl-Ile-oxazolone; assay: self-aminoacylation, catalytic enhancement (BIO) (fold over background); higher = more active; k-Seq, kA / k0A0; sequences stand for … in GGGAAUGGAUCCACAUCUACGAAUUC…UUCACUGCAGACUUGACGAAGCUG
Procedure, shortened: as §1

[4] = tested on: biotinyl-Met-oxazolone; assay: self-aminoacylation, catalytic enhancement (BMO) (fold over background); higher = more active; k-Seq, kA / k0A0; sequences stand for … in GGGAAUGGAUCCACAUCUACGAAUUC…UUCACUGCAGACUUGACGAAGCUG
Procedure, shortened: as §1

[5] = tested on: biotinyl-Phe-oxazolone; assay: self-aminoacylation, catalytic enhancement (BFO) (fold over background); higher = more active; k-Seq, kA / k0A0; sequences stand for … in GGGAAUGGAUCCACAUCUACGAAUUC…UUCACUGCAGACUUGACGAAGCUG
Procedure, shortened: as §1

[6] = tested on: biotinyl-Val-oxazolone; assay: self-aminoacylation, catalytic enhancement (BVO) (fold over background); higher = more active; k-Seq, kA / k0A0; sequences stand for … in GGGAAUGGAUCCACAUCUACGAAUUC…UUCACUGCAGACUUGACGAAGCUG
Procedure, shortened: as §1

Sequence	self-aminoacylation [1]	self-aminoacylation [2]	self-aminoacylation [3]	self-aminoacylation [4]	self-aminoacylation [5]	self-aminoacylation [6]
AUUCAGCUAGGUCUUCGGGUG [Fam2.2 aminoacylation ribozyme variant]	4.96	5.34	4.2	5.01	36.2	4.24
AUUCAUCUAGGUCAUCGAGUG [Fam2.2 aminoacylation ribozyme variant]	3.67	4.86	2.63	3.88	4.08	2.38
AUUCAUCUAGGUCAUCGGUUG [Fam2.2 aminoacylation ribozyme variant]	1.13	1.3	1.15	1.25	1.07	1.24
AUUCAUCUAGGUGAUCGGGUG [Fam2.2 aminoacylation ribozyme variant]	3.76	3.57	2.4	2.85	20.3	2.54
AUUCAUCUAGUUCAUCGGGUG [Fam2.2 aminoacylation ribozyme variant]	3.1	3.27	2.13	2.83	12.6	2.21
AUUCCACUAGGUCAUCGGGUG [Fam2.2 aminoacylation ribozyme variant]	8.98	14.2	6.56	9.49	77.2	6.23
AUUCCACUGGUCAUCGAGUGA [Fam2.1 aminoacylation ribozyme variant]	7.09	6.67	3.72	5.86	28.1	3.82
AUUCCCCAAGGUCAUCGGGUG [Fam2.2 aminoacylation ribozyme variant]	20.9	31.1	15.9	27	218	14.8
AUUCCCCCGGUCAUCGAGUGA [Fam2.1 aminoacylation ribozyme variant]	10.7	8.86	4.4	8.57	59.9	4.37
AUUCCCCUAGCUCAUCGGGUG [Fam2.2 aminoacylation ribozyme variant]	5.96	6.66	6.15	5.75	35.1	6.05
AUUCCCCUAGGUCAUCCGGUG [Fam2.2 aminoacylation ribozyme variant]	39.5	51.5	27.6	38.5	295	26.9
AUUCCCCUAGGUCAUCGGAUG [Fam2.2 aminoacylation ribozyme variant]	4.36	3.28	3.04	2.88	2.14	3.49
AUUCCCCUAGGUCAUCGGGUA [Fam2.2 aminoacylation ribozyme variant]	10.2	8.16	7.47	7.28	58.9	7.57
